Substitutions are numbered along the chain they refer to.
T1: mouse SIRPA variant hmSIRPA_Δ0 (mouse (with human residues), UniProt P97797 35-513)
T1 construct: FLAG-tagged (pFLAG V5-DEST), on 293α cells
T1 chain: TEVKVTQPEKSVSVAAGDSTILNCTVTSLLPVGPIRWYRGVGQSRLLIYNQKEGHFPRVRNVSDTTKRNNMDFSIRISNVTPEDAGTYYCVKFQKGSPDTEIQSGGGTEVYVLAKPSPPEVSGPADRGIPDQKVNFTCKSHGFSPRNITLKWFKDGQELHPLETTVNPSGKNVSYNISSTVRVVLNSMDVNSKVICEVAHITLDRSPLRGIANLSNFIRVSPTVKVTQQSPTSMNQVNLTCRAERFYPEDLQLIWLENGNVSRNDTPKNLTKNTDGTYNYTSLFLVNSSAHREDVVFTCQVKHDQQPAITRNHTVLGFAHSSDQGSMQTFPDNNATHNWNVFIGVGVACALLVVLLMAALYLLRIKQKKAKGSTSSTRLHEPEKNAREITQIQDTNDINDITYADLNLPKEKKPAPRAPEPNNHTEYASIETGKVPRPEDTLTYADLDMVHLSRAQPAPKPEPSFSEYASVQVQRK

T2: human SIRPA_V4 (human, UniProt P78324 31-504)
T2 construct: FLAG-tagged (pFLAG V5-DEST), on 293α cells; also called human SIRPA Variant 4
T2 chain: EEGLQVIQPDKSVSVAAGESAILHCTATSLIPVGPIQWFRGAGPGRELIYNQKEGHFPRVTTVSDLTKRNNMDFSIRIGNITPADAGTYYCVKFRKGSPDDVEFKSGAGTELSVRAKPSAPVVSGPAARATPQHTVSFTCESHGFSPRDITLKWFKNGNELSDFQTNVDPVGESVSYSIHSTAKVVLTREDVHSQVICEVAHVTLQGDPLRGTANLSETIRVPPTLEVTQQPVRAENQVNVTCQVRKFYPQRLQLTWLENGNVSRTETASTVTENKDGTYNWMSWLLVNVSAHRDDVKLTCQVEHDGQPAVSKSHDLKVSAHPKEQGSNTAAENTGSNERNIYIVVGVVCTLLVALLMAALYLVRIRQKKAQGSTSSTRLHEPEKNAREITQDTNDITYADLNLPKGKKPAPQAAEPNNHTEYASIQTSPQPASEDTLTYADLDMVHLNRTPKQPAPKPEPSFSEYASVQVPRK

B1: humanized anti-SIRPA antibody hD13_H1L3 (antibody, human IgG4 S228P, kappa, F234A L235A, V domains shown)
VH: QVQLVESGGGVVQPGRSLRLSCAASGFTFSDYGMIWVRQAPGKGLEWVASISSSSSYIYYADSVKGRFTISRDNSKNRLYLQMNSLRAEDTAVYYCARRYYGFNYPFDYWGQGTMVTVSS
VL: DTQLTQSPSSLSASVGQRVTITCGASKSVRTYMHWYQQKPGKQPKLLIYSASNLEAGVPSRFSGSGSGTDFTLTISSLQPEDFATYYCQQSNEPPYTFGQGTKLEIKR
notes: hH1 heavy chain (IgG4proFALA) and hL3 kappa light chain; also called hD13_HIL3; HIL3 antibody
B2: humanized anti-SIRPA antibody hD13_H2L2 (antibody, human IgG4 S228P, kappa, F234A L235A, V domains shown)
VH: B1 VH with Q1E, R78T
VL: B1 VL with D1A, T2I, Q43A
notes: hH2 heavy chain (IgG4proFALA) and hL2 kappa light chain; also called H2L2 antibody
B3: humanized anti-SIRPA antibody hD13_H2L3 (antibody, human IgG4 S228P, kappa, F234A L235A, V domains shown)
VH: B1 VH with Q1E, R78T
VL: B1 VL
notes: hH2 heavy chain (IgG4proFALA) and hL3 kappa light chain; also called H2L3 antibody
B4: humanized anti-SIRPA antibody hD13_H1L4 (antibody, human IgG4 S228P, kappa, F234A L235A, V domains shown)
VH: B1 VH
VL: DTVLTQSPDSLAVSLGQRATINCGASKSVRTYMHWYQQKPGQQPKLLIYSASNLEAGVPSRFSGSGSGTDFTLTISSLQAEDVAVYYCQQSNEPPYTFGQGTKVEIKR
notes: hH1 heavy chain (IgG4proFALA) and hL4 kappa light chain; also called hD13_HIL4; hD13_HIL4h
B5: human chimeric anti-SIRPA antibody cD13 (antibody, human IgG4 S228P, kappa, F234A L235A, V domains shown)
VH: EVQLVESGGGLVQPGRSLKLSCLASGFTFSDYGMIWVRQAPGKGLEWVASISSSSSYIYYADTVKGRFTISRENAKNTLFLHMTSLRSEDTALYYCARRYYGFNYPFDYWGQGVMVTVSS
VL: DTVLTQSPALAVSLGQRVTISCGASKSVRTYMHWYQQKSGQQPKLLIYSASNLEAGVPSRFSGSGSGTDFTLTIDPVEADDIANYYCQQSNEPPYTFGAGTKLELKR
notes: Human IgG4proFALA heavy chain, human kappa light chain; also called cD13 (IgG4pf); human chimeric antibody D13

Target: T1, mouse SIRPA variant hmSIRPA_Δ0
Experiment: cell-based ELISA on 293α cells expressing FLAG-tagged hmSIRPA_Δ0; Abs 490 normalized to FLAG tag [i]
Protocol: After the culture supernatant of 293α cells into which the pFLAG V5-DEST-hmSIRPA_Δ0, Δ1, and Δ2 expression vector prepared in 2)-1-2-2 was introduced and the pFLAG V5-DEST-introduced 293α cells was removed, 50 μL per well of four different D13 humanized anti-human SIRPA antibodies and a chimeric anti-human SIRPA antibody diluted with 5% FBS-containing PBS to a final concentration of 10,000 ng/mL were added to these cells, and the mixture was allowed to stand at 4° C. for one hour. Further, 50 μL per well of an anti-FLAG M2 antibody (SIGMA) diluted with 5% FBS-containing PBS to a final concentration of 10,000 ng/mL was added to a well for detecting expression of each SIRPA construct, and the mixture was allowed to stand at 4° C. for one hour. Thereafter, binding to each construct was evaluated in the same manner as in the evaluation of the binding activity of the human SIRPA. Binding of anti-human SIRPA antibodies to each construct was standardized by expression of the FLAG tag.

| Binder | binding result |
| --- | --- |
| B1 | binds |
| B2 | binds |
| B3 | binds |
| B4 | binds |
| B5 | binds |

Target: T2, human SIRPA_V4
Experiment: cell-based ELISA on 293α cells expressing FLAG-tagged SIRPA_V4; Abs 490 normalized to FLAG tag [iv]
Protocol: (§1) The 293a cells, described in Example 1)-6, were prepared at 5× 10⁵ cells/mL in a 10% FBS-containing DMEM medium. pFLAG V5-DEST-SIRPA_V1-V10, pFLAG V5-DEST-monkey SIRPA, pFLAG V5-DEST-mouse SIRPA, or pFLAG V5-DEST was introduced into the cells using Lipofectamine LTX (Invitrogen), and 100 μL each was aliquoted to a 96-well plate (Corning Incorporated) and cultured overnight in a 10% FBS-containing DMEM medium at 37° C. under a 5% CO₂ condition. The obtained introduced cells were used for cell-based ELISA in a state that they adhered. After the culture supernatant was removed, 50 μL per well of hD13_HIL3, hD13_HIL4h, hD13_H2L2, hD13_H2L3, or cD13 prepared in Examples 6 and 7 or a control antibody was added to each of various SIRPA genes-introduced cells at a final concentration of 0 to 10,000 ng/ml, and the mixture was allowed to stand at 4° C. for one hour. Thereafter, binding to human SIRPA was evaluated in the same manner as in Example 5-1.

| Binder | EC50 (read off the curve) |
| --- | --- |
| B1 | ~0.03 µg/mL |
| B2 | ~0.04 µg/mL |
| B3 | ~0.04 µg/mL |
| B4 | ~0.04 µg/mL |
| B5 | ~0.04 µg/mL |

What follows are binders tested against T3, human SIRPA_V8 (human, UniProt P78324 31-504) (assay: cell-based ELISA on 293α cells expressing FLAG-tagged SIRPA_V8; Abs 490 normalized to FLAG tag [iv]).
T3 construct: FLAG-tagged (pFLAG V5-DEST), on 293α cells; also called human SIRPA Variant 8
Protocol: as §1

| Binder | EC50 (read off the curve) |
| --- | --- |
| B1 | ~0.04 µg/mL |
| B2 | ~0.04 µg/mL |
| B3 | ~0.04 µg/mL |
| B4 | ~0.04 µg/mL |
| B5 | ~0.04 µg/mL |

What follows are binders tested against T4, human SIRPA_V7 (human, UniProt P78324 31-504) (assay: cell-based ELISA on 293α cells expressing FLAG-tagged SIRPA_V7; Abs 490 normalized to FLAG tag [iii]).
T4 construct: FLAG-tagged (pFLAG V5-DEST), on 293α cells; also called human SIRPA Variant 7
T4 sequence (P78324 other isoform, or with tags, fused parts or gaps limits assumed): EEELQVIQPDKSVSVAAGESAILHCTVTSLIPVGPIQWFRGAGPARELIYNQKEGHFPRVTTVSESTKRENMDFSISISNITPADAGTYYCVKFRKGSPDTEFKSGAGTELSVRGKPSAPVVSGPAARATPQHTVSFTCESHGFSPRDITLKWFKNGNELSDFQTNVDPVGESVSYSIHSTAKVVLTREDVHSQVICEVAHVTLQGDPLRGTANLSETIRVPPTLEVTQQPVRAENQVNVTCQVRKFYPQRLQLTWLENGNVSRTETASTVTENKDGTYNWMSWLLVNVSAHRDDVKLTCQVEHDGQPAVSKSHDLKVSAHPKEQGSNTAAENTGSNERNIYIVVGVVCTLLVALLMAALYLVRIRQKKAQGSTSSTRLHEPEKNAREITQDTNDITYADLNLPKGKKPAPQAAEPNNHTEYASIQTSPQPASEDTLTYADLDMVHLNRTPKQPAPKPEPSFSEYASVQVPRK
Protocol: as §1

| Binder | EC50 (read off the curve) |
| --- | --- |
| B1 | ~0.04 µg/mL |
| B2 | ~0.04 µg/mL |
| B3 | ~0.04 µg/mL |
| B4 | ~0.04 µg/mL |
| B5 | ~0.04 µg/mL |

These binders were tested against T5, human SIRPA_V1 protein (human, UniProt P78324 31-504) (assay: blocking cell-based ELISA: peroxidase-labeled CD47-Fc (1 µg/mL) on 293α cells expressing SIRPA_V1; y axis = CD47-Fc signal relative to no antibody (100)).
T5 construct: Expressed on 293α cells from pcDNA3.2 V5-DEST or pFLAG V5-DEST (FLAG-tagged) vectors; also called human SIRPA Variant 1; hSIRPA V1
T5 sequence (P78324 31-504 limits assumed): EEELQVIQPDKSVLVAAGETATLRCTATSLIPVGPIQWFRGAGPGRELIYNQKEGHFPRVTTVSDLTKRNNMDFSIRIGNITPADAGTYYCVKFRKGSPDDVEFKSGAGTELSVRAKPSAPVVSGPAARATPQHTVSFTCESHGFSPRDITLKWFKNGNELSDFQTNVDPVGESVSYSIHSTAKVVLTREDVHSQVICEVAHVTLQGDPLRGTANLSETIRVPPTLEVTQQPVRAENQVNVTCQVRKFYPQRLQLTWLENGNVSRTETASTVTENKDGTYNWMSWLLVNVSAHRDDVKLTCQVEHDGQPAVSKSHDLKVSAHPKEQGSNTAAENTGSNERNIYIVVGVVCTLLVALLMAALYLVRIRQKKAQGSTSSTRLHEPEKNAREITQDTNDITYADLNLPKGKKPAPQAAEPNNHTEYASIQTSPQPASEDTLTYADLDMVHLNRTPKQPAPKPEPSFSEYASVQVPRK
Protocol: After the culture supernatant of human SIRPA or monkey SIRPA expression vector-introduced 293α cells prepared in Example 8)-1 was removed, 50 μL per well of hD13_HIL3, hD13_HIL4h, hD13_H2L2, or hD13_H2L3 diluted with 5% FBS-containing PBS to a final concentration of 0 to 10,000 ng/ml was added to each of pcDNA3.2 V5-DEST-SIRPA_V1, pcDNA3.2 V5-DEST-SIRPA_V2, pcDNA3.2 V5-DEST-monkey SIRPA, and pcDNA3.2 V5-DEST-introduced 293α cells, immediately followed by addition of peroxidase-labeled CD47-Fc prepared with 5% FBS-containing PBS at 1 μg/mL, and the mixture was allowed to stand at 4° C. for one hour. Thereafter, the SIRPA-CD47 binding inhibitory activity was evaluated in the same manner as in 1)-6-3.

| Binder | IC50 (read off the curve) |
| --- | --- |
| B1 | ~0.5 µg/mL |
| B2 | ~0.6 µg/mL |
| B3 | ~0.6 µg/mL |
| B4 | ~0.5 µg/mL |
| B5 | ~0.7 µg/mL |
